Two substances from publication PMC9297946 can be followed below.

The experiment concerns the target extracellular domain (25-250) of the human EPO receptor EPOR (human) (UniProt P19235). In words: SEC + other: RP-HPLC-MS of the isolated complex after dissociation; proteins mixed in solution under dilute conditions (about 0.3 mg EPOR per mL); gel filtration over an analytical Superdex 75 column; complex peak analysed by non-reducing SDS-PAGE, then dissociated with 0.2 % TFA (1 h) and analysed by RP-HPLC-MS for the ratio of the two proteins.

For the substance “EPO A (synthetic asialo glycoform of human erythropoietin 1-166 with three biantennary N-glycans terminating with galactose) (from UniProt P01588 28-193) (ligand)”, the stoichiometry N (commonly the number of molecules, sites or subunits per partner or assembly) was 1 EPO:EPOR.

As for “EPO S (synthetic sialylated glycoform of human erythropoietin 1-166 with three alpha-2,6-sialylated biantennary N-glycans) (from UniProt P01588 28-193) (ligand)”, the stoichiometry N was 1 EPO:EPOR.
